pIC50: −log10 of the molar value. “And” between values parts separate entries of the source, which are not always exact repeats. Equal values may be shown once. Read-outs that look alike come from different tables or passages of the source. Residues, ends and D or L forms follow the SMILES beside them. No end group written: not given here.
How the values were obtained:
ACE [1] = target: T1, ACE (Homo sapiens, UniProt P12821); parameters: method as in our group and the DFBP database; conditions: ACE-inhibitory activity used as 3D-QSAR input (training set 34, test set 12 marked *); ref our group and the DFBP database; cited from earlier work
T1 construct: purchased Sigma-Aldrich

[2] = Stability of peptides after simulated gastrointestinal digestion in vitro; assay type: in vitro ADME; conditions: pepsin (1000 U/mL) and pancreatin (50 U/mL); peptide 0.5 mg/mL; LC-MS (Q Exactive, ESI positive); peak area after/before digestion × 100
Procedure: The stability in vitro digestion followed the method we reported previously with minor modifications. Pepsin (1000 U/mL) and pancreatin (50 U/mL) were used to digest the peptide (0.5 mg/mL). A Q Exactive system (Thermo Fisher Scientific, USA) equipped with ESI in positive ion mode was used for mass spectrometric detection. Stability %=Peak area after digestion sample/Peak area before digestion sample×100%

ACE [3] = target: T1, ACE; test: ACE-inhibitory activity assay in vitro (HHL substrate, hippuric acid by HPLC); assay type: biochemical; conditions: for inhibition at 2000 µg/mL: 1 h; for pIC50: five concentrations in triplicate
Procedure: The method used to determine ACE-inhibitory activity was designed according to that of Sangsawad et al. with minor modifications. […] The reaction mixture comprised 50 μL of peptide and 50 μL of ACE (25 mU/mL), undergoing pre-incubation for 5 min at 37 °C. Subsequently, 150 μL of substrate (8.3 mM HHL in 0.1 M Tris-HCl buffer with 500 mM NaCl at pH 8.3) was introduced, and the sample was further incubated at 37 °C for 60 min. Following the completion of the reaction, it was terminated via the addition of 1 M HCl. […] IC50 was used to express the activity of hydrolysate; all analyses were carried out under five different concentrations in triplicate.

[4] = peptide 2 mg/mL, HHL substrate, pH 8.3, 37 °C, 60 min, HPLC of hippuric acid, read-out: ACE Inhibition Rate (%) (2 mg/mL)
[5] = HHL substrate, pH 8.3, 37 °C, 60 min, HPLC of hippuric acid

T1 sequence (P12821 30-1306, species assumed): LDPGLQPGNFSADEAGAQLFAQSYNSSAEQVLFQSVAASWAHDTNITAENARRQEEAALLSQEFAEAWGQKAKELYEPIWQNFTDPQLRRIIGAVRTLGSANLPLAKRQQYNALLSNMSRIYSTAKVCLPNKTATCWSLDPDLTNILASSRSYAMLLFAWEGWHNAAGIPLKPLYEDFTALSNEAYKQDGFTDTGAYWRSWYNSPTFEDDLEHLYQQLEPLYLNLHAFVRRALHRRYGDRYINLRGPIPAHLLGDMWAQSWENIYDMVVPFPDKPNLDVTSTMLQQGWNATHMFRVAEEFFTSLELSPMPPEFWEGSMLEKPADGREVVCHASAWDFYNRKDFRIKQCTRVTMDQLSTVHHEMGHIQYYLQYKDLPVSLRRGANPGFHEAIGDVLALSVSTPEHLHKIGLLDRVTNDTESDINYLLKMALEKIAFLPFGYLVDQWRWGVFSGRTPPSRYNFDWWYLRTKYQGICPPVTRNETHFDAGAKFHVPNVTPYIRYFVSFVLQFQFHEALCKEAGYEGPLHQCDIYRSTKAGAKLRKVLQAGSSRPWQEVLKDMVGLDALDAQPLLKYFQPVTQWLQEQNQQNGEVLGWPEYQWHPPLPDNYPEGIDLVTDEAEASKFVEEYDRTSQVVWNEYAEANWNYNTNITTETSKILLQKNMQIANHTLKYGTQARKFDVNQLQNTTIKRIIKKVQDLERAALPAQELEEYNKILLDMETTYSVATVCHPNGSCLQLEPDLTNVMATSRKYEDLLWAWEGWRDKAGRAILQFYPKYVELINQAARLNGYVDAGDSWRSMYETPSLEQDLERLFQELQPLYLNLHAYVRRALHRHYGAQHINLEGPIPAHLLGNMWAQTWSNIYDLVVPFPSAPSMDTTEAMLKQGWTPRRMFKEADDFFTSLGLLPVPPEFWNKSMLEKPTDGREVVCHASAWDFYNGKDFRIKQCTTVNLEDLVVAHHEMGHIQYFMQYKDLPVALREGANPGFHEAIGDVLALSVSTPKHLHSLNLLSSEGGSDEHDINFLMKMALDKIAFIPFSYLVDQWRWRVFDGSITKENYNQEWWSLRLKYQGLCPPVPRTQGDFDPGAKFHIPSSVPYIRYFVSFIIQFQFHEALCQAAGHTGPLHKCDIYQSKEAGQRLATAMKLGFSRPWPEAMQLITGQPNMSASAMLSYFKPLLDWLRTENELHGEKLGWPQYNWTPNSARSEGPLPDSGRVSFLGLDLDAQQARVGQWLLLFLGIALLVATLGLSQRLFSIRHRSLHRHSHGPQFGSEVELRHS

Compound	PIC50 (ACE [1])	other results
Leu-Val-Leu [ACEI peptide, 3D-QSAR training set]	-1.09	–
GYALPHA [ACEI peptide, 3D-QSAR training set]	-1.44	–
Tyr-Thr-Val-Phe (YTVF) [ACEI peptide, 3D-QSAR training set]	-1.94	–
KALVAP [KALVAP]	–	Simulated Gastrointestinal Digestion Stability % [2]: 78%; inhibition at 2000 µg/mL (ACE [3]; [4]): 100%; pIC50 (ACE [3]; [5]): 4.77
IGPGLGR [ACEI peptide, 3D-QSAR training set]	-2.32	–
Ser-Leu-Pro-Gln-Asn (SLPQN) [ACEI peptide, 3D-QSAR training set]	-0.98	–
PANIKWGD [ACEI peptide, 3D-QSAR training set]	-1.32	–
RLPHV [RLPHV]	–	Simulated Gastrointestinal Digestion Stability % [2]: 82%; inhibition at 2000 µg/mL (ACE [3]; [4]): 100%; pIC50 (ACE [3]; [5]): 5.42 and 5.22
LVLPGE [ACEI hexapeptide of the authors' previous studies; alignment template, training set]	-1.13	–
His-Cys-His-Thr-Asn (HCHTN) [ACEI peptide, 3D-QSAR test set]	-1.48	–
Pro-Ser-Phe-Gln-Pro (PSFQP) [ACEI peptide, 3D-QSAR training set]	-1.86	–
ADGLWL [ACEI peptide, 3D-QSAR training set]	-2.45	–
PRPKPPP [PRPKPPP]	–	inhibition at 2000 µg/mL (ACE [3]; [4]): 74.8%
AHSVRF [ACEI peptide, 3D-QSAR test set]	-1.26	–
Ala-His-Ser-Val (AHSV) [ACEI peptide, 3D-QSAR training set]	-3.26	–
FCLYELAR [ACEI peptide, 3D-QSAR training set]	-1.50	–
LPQNILP [ACEI peptide, 3D-QSAR test set]	-1.66	–
LEKPLL [LEKPLL]	–	inhibition at 2000 µg/mL (ACE [3]; [4]): 24.2%
KVREGTTY [ACEI peptide, 3D-QSAR training set]	-2.01	–
LEKLVT [LEKLVT]	–	inhibition at 2000 µg/mL (ACE [3]; [4]): 30.5%
FPEVFGK [ACEI peptide, 3D-QSAR training set]	-2.15	–
FQKVVAK [ACEI peptide, 3D-QSAR test set]	-0.32	–
Val-His-Leu-Pro-Pro (VHLPP) [ACEI peptide, 3D-QSAR test set]	-1.26	–
LPGVLPVA [ACEI peptide, 3D-QSAR test set]	0.11	–
Cys-Cys-Asn-Lys (CCNK) [ACEI peptide, 3D-QSAR training set]	-0.95	–
LGPLGHQ [ACEI peptide, 3D-QSAR training set]	-0.63	–
NMAINPSK [ACEI peptide, 3D-QSAR training set]	-1.78	–

Compound	PIC50 (ACE [1])	other results
PTHIKWGD [ACEI peptide, 3D-QSAR training set]	-0.18	–
TFQGPPHGIQVER [ACEI peptide, 3D-QSAR training set]	-0.53	–
Val-Leu-Pro-Tyr-Pro (VLPYP) [ACEI peptide, 3D-QSAR training set]	-1.56	–
GKDAVIV [ACEI peptide, 3D-QSAR training set]	-1.26	–
GRVSNCAA [ACEI peptide, 3D-QSAR training set]	-1.76	–
GIPLPLI [ACEI peptide, 3D-QSAR training set]	-1.87	–
CCNKSV (cysteine pairing not given here) [ACEI peptide, 3D-QSAR test set]	-1.18	–
Asp-Phe-Gly [ACEI peptide, 3D-QSAR training set]	-1.65	–
Tyr-Pro-Gly [ACEI peptide, 3D-QSAR training set]	-1.37	–
Lys-Ser-Val [ACEI peptide, 3D-QSAR training set]	-3.01	–
Leu-Ala-Lys [ACEI peptide, 3D-QSAR test set]	-1.68	–
KVKPL [KVKPL]	–	inhibition at 2000 µg/mL (ACE [3]; [4]): -14.2%
YETGNGIK [ACEI peptide, 3D-QSAR training set]	-0.57	–
N=C(N)NCCC[C@H](NC(=O)[C@H](CCC(=O)O)NC(=O)[C@@H]1CCCN1)C(=O)N[C@@H](CCCCN)C(=O)O [PERK] (H-PERK-OH)	–	inhibition at 2000 µg/mL (ACE [3]; [4]): 4.5%
Leu-Phe-Arg-Gln (LFRQ) [ACEI peptide, 3D-QSAR test set]	-1.23	–
LVLPGELAK [ACEI peptide, 3D-QSAR training set]	-2.26	–
N=C(N)NCCC[C@H](NC(=O)[C@@H]1CCCN1C(=O)[C@H](Cc1ccccc1)NC(=O)[C@@H](N)CCCNC(=N)N)C(=O)O [RFPR] (H-RFPR-OH)	–	inhibition at 2000 µg/mL (ACE [3]; [4]): 22.9%
AHSVRFY [ACEI peptide, 3D-QSAR test set]	-1.21	–
CC(C)C[C@H](NC(=O)[C@H](Cc1c[nH]cn1)NC(=O)[C@H](CC(C)C)NC(=O)[C@@H](N)Cc1ccc(O)cc1)C(=O)O [YLHL] (H-YLHL-OH)	–	inhibition at 2000 µg/mL (ACE [3]; pH 8.3, read-out: ACE Inhibition Rate (%) (2 mg/mL)): 65.4%
TYLPVH [ACEI peptide, 3D-QSAR test set]	-0.14	–
Gln-Val-Gly-Pro (QVGP) [ACEI peptide, 3D-QSAR training set]	-2.21	–
IIAPPER [ACEI peptide, 3D-QSAR training set]	-0.94	–
TVKPGL [TVKPGL]	–	Simulated Gastrointestinal Digestion Stability % [2]: 90%; inhibition at 2000 µg/mL (ACE [3]; [4]): 100%; pIC50 (ACE [3]; [5]): 5.22 and 5.42
LHPGDAQR [ACEI peptide, 3D-QSAR training set]	-1.01	–
Phe-Pro-Gln-Tyr (FPQY) [ACEI peptide, 3D-QSAR training set]	-2.48	–
His-Cys-His-Thr (HCHT) [ACEI peptide, 3D-QSAR training set]	-2.06	–
Leu-Gln-Lys-Trp (LQKW) [ACEI peptide, 3D-QSAR test set]	-1.54	–

— article PMC10648141, “Screening of Oral Potential Angiotensin-Converting Enzyme Inhibitory Peptides from Zizyphus jujuba Proteins Based on Gastrointestinal Digestion In Vivo” (International Journal of Molecular Sciences, 2023)
